Where no end group is shown, it is not given here. Me3 = tri-methylation (trimethyl-lysine); Me2 = di-methylation (dimethyl-lysine)
B1: histone H3 peptide (residues 1-15) tri-methylated at K9 (peptide)
peptide: ARTKQTARKSTGGKAC
modifications: trimethyl-lysine at K9
notes: histone H3, residues 1-15; added C-terminal cysteine, by which the peptide was coupled to SulfoLink resin; also called H3K9me3
B2: unmethylated histone H3 peptide (residues 1-15) (peptide)
peptide: ARTKQTARKSTGGKAC
notes: histone H3, residues 1-15; added C-terminal cysteine, by which the peptide was coupled to SulfoLink resin
B3: unmethylated histone H4 peptide (residues 16-25) (peptide)
peptide: KRHRKVLRDNC
notes: histone H4, residues 16-25; added C-terminal cysteine, by which the peptide was coupled to SulfoLink resin; also called H4K20
B4: histone H3 peptide (residues 1-15) mono-methylated at K9 (peptide)
peptide: ARTKQTARKSTGGKAC
modifications: monomethyl-lysine at K9
notes: histone H3, residues 1-15; added C-terminal cysteine, by which the peptide was coupled to SulfoLink resin; also called H3K9me1
B5: histone H4 peptide (residues 16-25) mono-methylated at K20 (peptide)
peptide: KRHRK(Me)VLRDNC
notes: histone H4, residues 16-25; added C-terminal cysteine, by which the peptide was coupled to SulfoLink resin; also called H4K20me1
B6: histone H4 peptide (residues 16-25) tri-methylated at K20 (peptide)
peptide: KRHRK(Me3)VLRDNC
notes: histone H4, residues 16-25; added C-terminal cysteine, by which the peptide was coupled to SulfoLink resin; also called H4K20me3
B7: histone H3 peptide (residues 1-15) di-methylated at K9 (peptide)
peptide: ARTKQTARKSTGGKAC
modifications: dimethyl-lysine at K9
notes: histone H3, residues 1-15; added C-terminal cysteine, by which the peptide was coupled to SulfoLink resin; also called H3K9me2
B8: histone H4 peptide (residues 16-25) di-methylated at K20 (peptide)
peptide: KRHRK(Me2)VLRDNC
notes: histone H4, residues 16-25; added C-terminal cysteine, by which the peptide was coupled to SulfoLink resin; also called H4K20me2

Each binder was assayed against T1, 3xFLAG-L3MBTL2 K675/700R mutant (human, UniProt Q969R5 1-705, K675/700R | K675/700R) (assay: pull-down; histone peptides immobilised on resin; 3xFLAG-L3MBTL2 immunoprecipitated from N-ethylmaleimide-treated nuclear extracts of stably transfected HEK293 cells and then incubated with the peptides; bound protein detected by anti-FLAG western blot). Details: both partners purified.
T1 construct: L3MBTL2, human, with K675R and K700R; Associated proteins may be present after the immunoprecipitation; also called SUMOylation-defective L3MBTL2; K/R; source: HEK293, stably transfected, immunoprecipitated from N-ethylmaleimide-treated nuclear extracts
T1 sequence (Q969R5 other isoform, or with tags, fused parts or gaps K675/700R | K675/700R | K675/700R | K675/700R | mutant): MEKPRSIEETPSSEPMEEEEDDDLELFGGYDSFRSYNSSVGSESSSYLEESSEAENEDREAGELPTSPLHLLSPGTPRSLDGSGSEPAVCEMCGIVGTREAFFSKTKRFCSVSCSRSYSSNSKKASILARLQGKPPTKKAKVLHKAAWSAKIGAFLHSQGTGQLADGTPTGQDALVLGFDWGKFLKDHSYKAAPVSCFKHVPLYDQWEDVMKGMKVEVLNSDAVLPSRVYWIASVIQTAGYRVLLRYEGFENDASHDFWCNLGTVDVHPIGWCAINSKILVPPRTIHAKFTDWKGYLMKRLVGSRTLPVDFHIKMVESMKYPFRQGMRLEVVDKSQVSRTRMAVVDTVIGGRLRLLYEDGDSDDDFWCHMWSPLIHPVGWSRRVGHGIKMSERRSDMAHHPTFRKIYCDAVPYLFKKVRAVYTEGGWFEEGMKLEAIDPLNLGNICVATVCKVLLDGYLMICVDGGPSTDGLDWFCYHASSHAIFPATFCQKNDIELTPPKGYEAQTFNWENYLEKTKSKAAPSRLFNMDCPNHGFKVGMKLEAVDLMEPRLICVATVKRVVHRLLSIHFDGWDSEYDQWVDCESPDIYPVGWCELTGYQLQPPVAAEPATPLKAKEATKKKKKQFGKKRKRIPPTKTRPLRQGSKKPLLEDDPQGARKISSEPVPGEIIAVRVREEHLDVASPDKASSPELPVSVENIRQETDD

Question: Does B1 bind?
Answer: binds

Question: Does B2 bind?
Answer: binds

Question: Does B3 bind?
Answer: binds

Question: Does B4 bind?
Answer: binds

Question: Does B5 bind?
Answer: binds

Question: Does B6 bind?
Answer: binds

Question: Does B7 bind?
Answer: binds

Question: Does B8 bind?
Answer: binds

These binders were tested against T2, wild-type 3xFLAG-L3MBTL2 (human, UniProt Q969R5 1-705) in the same assay as above. Details: both partners purified.
T2 construct: L3MBTL2, human, wild type; The cellular wild-type protein is partly SUMOylated (SUMO2/3 at K675 and K700); Associated proteins may be present after the immunoprecipitation; also called FLAG-L3MBTL2 WT; 3xFLAG-L3MBTL2 WT; source: HEK293, stably transfected, immunoprecipitated from N-ethylmaleimide-treated nuclear extracts
T2 sequence (Q969R5 whole entry): as the sequence (Q969R5 other isoform, or with tags, fused parts or gaps K675/700R | K675/700R | K675/700R | K675/700R | mutant) above, with R675K, R700K counted along it

Question: Does B1 bind?
Answer: binds

Question: Does B2 bind?
Answer: binds

Question: Does B3 bind?
Answer: binds

Question: Does B4 bind?
Answer: binds

Question: Does B5 bind?
Answer: binds

Question: Does B6 bind?
Answer: binds

Question: Does B7 bind?
Answer: binds

Question: Does B8 bind?
Answer: binds

What follows are binders tested against T3, recombinant full-length His-L3MBTL2 (human, UniProt Q969R5 1-705) (assay: pull-down; histone peptides immobilised by a C-terminal cysteine on SulfoLink Coupling Resin; recombinant His-tagged proteins in 25 mM Tris-HCl pH 8, 150 mM NaCl, 2 mM EDTA, 0.5% NP 40, 1 h at 4°C (time course 5-60 min); bound protein detected by anti-His western blot; for SUMOylated L3MBTL2 the in vitro SUMOylation reaction was used). Details: both partners purified.
T3 construct: L3MBTL2 (Lethal(3) malignant brain tumour like 2), human, full length; also called 6xHis-L3MBTL2; His-L2; source: bacterially expressed, recombinant
T3 sequence (Q969R5 whole entry): as the sequence (Q969R5 other isoform, or with tags, fused parts or gaps K675/700R | K675/700R | K675/700R | K675/700R | mutant) above, with R675K, R700K counted along it

Question: Does B1 bind?
Answer: binds

Question: Does B2 bind?
Answer: binds

Question: Does B3 bind?
Answer: binds

Question: Does B4 bind?
Answer: binds

Question: Does B5 bind?
Answer: binds

Question: Does B6 bind?
Answer: binds

Question: Does B7 bind?
Answer: binds

Question: Does B8 bind?
Answer: binds

What follows are binders tested against T4, 4xMBT-repeat domain of L3MBTL2 (human, UniProt Q969R5 170-619) in the same assay as above. Details: both partners purified.
T4 construct: L3MBTL2, human, isolated 4xMBT-repeat domain, aa 170-619; also called His-4xMBT
T4 sequence (Q969R5 170-619): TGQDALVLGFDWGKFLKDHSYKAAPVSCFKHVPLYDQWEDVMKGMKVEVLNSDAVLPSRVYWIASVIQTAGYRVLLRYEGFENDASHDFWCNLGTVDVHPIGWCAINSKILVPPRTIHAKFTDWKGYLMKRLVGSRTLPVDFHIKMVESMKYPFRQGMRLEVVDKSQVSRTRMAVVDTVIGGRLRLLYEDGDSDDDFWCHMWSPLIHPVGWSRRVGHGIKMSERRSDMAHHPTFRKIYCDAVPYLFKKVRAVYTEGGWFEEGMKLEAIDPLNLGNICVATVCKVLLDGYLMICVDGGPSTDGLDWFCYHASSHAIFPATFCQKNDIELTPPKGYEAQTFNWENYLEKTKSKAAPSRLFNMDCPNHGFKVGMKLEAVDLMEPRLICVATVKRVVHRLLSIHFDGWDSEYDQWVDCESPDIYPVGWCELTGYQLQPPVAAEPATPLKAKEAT

Question: Does B8 bind?
Answer: binds

Source: PMC3950706, “SUMOylation of the polycomb group protein L3MBTL2 facilitates repression of its target genes” (Nucleic Acids Research, 2013)
